Results on five molecules are retold here after patent publication US10294487B2, “Methods and compositions involving ALS variants with native substrate preference” (E I DU PONT DE NEMOURS AND COMPANY, priority 2012, dated 2019).

Data set [1] relates to G. max ALS1 protein. The experiment in a line: Colorimetric ALS kinetic assay (Km, kcat) with pyruvate as substrate. Type of data set: biochemical, Glycine max. On the procedure:
A survey of known ALS (AcetoLactate Synthase) gene variants (Table 2) was performed, and a number of ALS variants were selected for kinetic evaluation based on breadth and strength of insensitivity to ALS-inhibitor herbicides as well as kinetic activity parameters including the ratio of substrate preferences. The selected ALS gene variants (Table 3) were generated by PCR mediated site-directed mutagenesis. Finnzymes PHUSION® DNA polymerase (Cat. No. F-530S) was used for the PCR reactions, following the instructions for recommended temperatures and cycles in the PHUSION® protocol. Some mutagenesis reactions were assisted by the use of IN-FUSION® enzyme (Clontech Cat. No. 639620) to circularize a linear plasmid with the mutation located within the 15 nucleotide overlapping ends, via recombination following the manufacturer's protocol for primer design and reaction conditions. The ALS genes, beginning with encoded amino acids SISK, (S48 to K51 in the G. max ALS1 protein (SEQ ID NO:1) corresponding to the mature protein N-terminus of the chloroplast localized enzyme), were cloned into the PMAL® E. coli expression vector (New England Biolabs) to express ALS as a fusion protein with a Maltose-Binding Protein (MBP) at the N-terminus with a thrombin site for cleavage and a His-6 tag for affinity purification. All in vitro protein characterization described in the examples was carried out with the isolated proteins after cleavage from the His-MBP fusion partner.
Km and Kcat determinations for recombinant ALS variants (with respect to pyruvate as the substrate) were performed using a colorimetric assay. ALS assays were carried out in 96-well microplates with 150 ul reaction containing 25 mM potassium phosphate, 0.2 mg/ml BSA, 15 mM MgCl2, 0.7 mM TPP, 28 uM FAD and 0-100 mM sodium pyruvate. Reactions were initiated by the addition of ALS enzyme to a final amount of 0.8 ug/well. Parameters for Km and Vmax were determined by fitting the velocity versus substrate concentration data to a rectangular hyperbola using GraphPad Prism software. Kcat values were determined from Vmax based on protein concentration in the reactions.

The subject of data set [2] is G. max ALS1 protein. The experiment in a line: Substrate specificity ratio (Rf), pyruvate versus 2-ketobutyrate, LC-MS of reduced products. Type of data set: biochemical, Glycine max. Conditions: ratio of [pyruvate] to [2-ketobutyrate] giving equal rates of acetolactate and acetohydroxybutyrate formation; 25 mM pyruvate. The text has this:
The “substrate specificity ratio”, or “Rf”, characterizes the specificity of the ALS enzyme for AHB formation relative to AL formation (Gollop et al. (1989) Biochemistry 28:6310-6317). Rf is the ratio of [pyruvate] to [2-ketobutyrate] that results in equal rates of formation of acetolactate and acetohydroxybutyrate. Rf is a constant at all substrate concentrations. The substrate specificity ratio is ˜114 for the wild type Glycine max ALS1 enzyme (SEQ ID NO:1) compared to ˜3 for the highly resistant allele (HRA) double mutant variant (SEQ ID NO: 10) of the Glycine max ALS1. The soybean HRA sequence is disclosed, for example, in WO2007/024782, herein incorporated by reference.
Substrate preference was determined using the assay described in Example 3; however, the assay was conducted using a constant concentration of pyruvate (25 mM) and varying concentrations of the second substrate, 2-ketobutyrate. Each reaction involving a specific ratio of pyruvate to 2-ketobutyrate, after a set period of time, was quenched by addition of sodium borohydride (7-fold excess) to form the reduced adducts of the products of the two substrates namely; reduced acetolactate for the reaction with pyruvate and reduced aceto hydroxybutyrate for the 2-ketobutyrate reaction. The relative amounts of the two reduced products was determined by first, chromatographic separation using a 4.6×250 mm dC18 column (Atlantis) equilibrated with a 0.1% formic acid solution and subsequent elution using a methanol gradient at 0.7 ml/min, followed by detection using a Thermo FINNIGAN® LTQ® Mass Spectrometer (MS). The products of the two reactions were quantified by integration of the MS signals. The % of the amount of each of the reduced products was then plotted versus the concentration of 2-ketobutyrate. As the 2-ketobutyrate amount increased there was a consequent increase in reduced acetohydroxybutyrate (AHB) and decrease in reduced acetolactate (AL). […] The substrate specificity ratio was ˜114 for the wild type enzyme compared to 3 for the highly resistant allele (HRA) double mutant ALS variant (SEQ ID NO: 10).

The Km is the substrate concentration at which the rate is half of its maximum. A word on the kcat: it is the maximal rate divided by the concentration of active sites.

B1: GM-ALS_P178A: Glycine Max ALS1 variant with a P→A mutation at position 178 (protein)
chain: MAATASRTTRFSSSSSHPTFPKRITRSTLPLSHQTLTKPNHALKIKCSISKPPTAAPFTKEAPTTEPFVSRFASGEPRKGADILVEALERQGVTTVFAYPGGASMEIHQALTRSAAIRNVLPRHEQGGVFAAEGYARSSGLPGVCIATSGPGATNLVSGLADALMDSVPVVAITGQVARRMIGTDAFQETPIVEVSRSITKHNYLILDVDDIPRVVAEAFFVATSGRPGPVLIDIPKDVQQQLAVPNWDEPVNLPGYLARLPRPPAEAQLEHIVRLIMEAQKPVLYVGGGSLNSSAELRRFVELTGIPVASTLMGLGTFPIGDEYSLQMLGMHGTVYANYAVDNSDLLLAFGVRFDDRVTGKLEAFASRAKIVHIDIDSAEIGKNKQAHVSVCADLKLALKGINMILEEKGVEGKFDLGGWREEINVQKHKFPLGYKTFQDAISPQHAIEVLDELTNGDAIVSTGVGQHQMWAAQFYKYKRPRQWLTSGGLGAMGFGLPAAIGAAVANPGAVVVDIDGDGSFIMNVQELATIRVENLPVKILLLNNQHLGMVVQWEDRFYKSNRAHTYLGDPSSESEIFPNMLKFADACGIPAARVTKKEELRAAIQRMLDTPGPYLLDVIVPHQEHVLPMIPSNGSFKDVITEGDGRTRY
modifications: ALS1 variant P178A
On to B1, for which, in the data set with G. max ALS1 protein [1], the Km came to 5 mM and the kcat was 1.08 s⁻¹. Also, the “Substrate specificity ratio (Rf)” value in the data set with G. max ALS1 protein [2] is listed as 119.0.

B2: GM-ALS_P178Q: Glycine Max ALS1 variant with a P→Q mutation at position 178 (protein)
chain: MAATASRTTRFSSSSSHPTFPKRITRSTLPLSHQTLTKPNHALKIKCSISKPPTAAPFTKEAPTTEPFVSRFASGEPRKGADILVEALERQGVTTVFAYPGGASMEIHQALTRSAAIRNVLPRHEQGGVFAAEGYARSSGLPGVCIATSGPGATNLVSGLADALMDSVPVVAITGQVQRRMIGTDAFQETPIVEVSRSITKHNYLILDVDDIPRVVAEAFFVATSGRPGPVLIDIPKDVQQQLAVPNWDEPVNLPGYLARLPRPPAEAQLEHIVRLIMEAQKPVLYVGGGSLNSSAELRRFVELTGIPVASTLMGLGTFPIGDEYSLQMLGMHGTVYANYAVDNSDLLLAFGVRFDDRVTGKLEAFASRAKIVHIDIDSAEIGKNKQAHVSVCADLKLALKGINMILEEKGVEGKFDLGGWREEINVQKHKFPLGYKTFQDAISPQHAIEVLDELTNGDAIVSTGVGQHQMWAAQFYKYKRPRQWLTSGGLGAMGFGLPAAIGAAVANPGAVVVDIDGDGSFIMNVQELATIRVENLPVKILLLNNQHLGMVVQWEDRFYKSNRAHTYLGDPSSESEIFPNMLKFADACGIPAARVTKKEELRAAIQRMLDTPGPYLLDVIVPHQEHVLPMIPSNGSFKDVITEGDGRTRY
modifications: ALS1 variant P178Q
Take B2: in the data set on G. max ALS1 protein [1], the Km worked out at 3 mM and the kcat was found to be 2.72 s⁻¹. Besides, the “Substrate specificity ratio (Rf)” value with G. max ALS1 protein [2] is 86.0.

B3: GM-ALS_P178L_W555L: Glycine Max ALS1 with P→L at position 178 and W→L at position 555 (protein)
chain: MAATASRTTRFSSSSSHPTFPKRITRSTLPLSHQTLTKPNHALKIKCSISKPPTAAPFTKEAPTTEPFVSRFASGEPRKGADILVEALERQGVTTVFAYPGGASMEIHQALTRSAAIRNVLPRHEQGGVFAAEGYARSSGLPGVCIATSGPGATNLVSGLADALMDSVPVVAITGQVLRRMIGTDAFQETPIVEVSRSITKHNYLILDVDDIPRVVAEAFFVATSGRPGPVLIDIPKDVQQQLAVPNWDEPVNLPGYLARLPRPPAEAQLEHIVRLIMEAQKPVLYVGGGSLNSSAELRRFVELTGIPVASTLMGLGTFPIGDEYSLQMLGMHGTVYANYAVDNSDLLLAFGVRFDDRVTGKLEAFASRAKIVHIDIDSAEIGKNKQAHVSVCADLKLALKGINMILEEKGVEGKFDLGGWREEINVQKHKFPLGYKTFQDAISPQHAIEVLDELTNGDAIVSTGVGQHQMWAAQFYKYKRPRQWLTSGGLGAMGFGLPAAIGAAVANPGAVVVDIDGDGSFIMNVQELATIRVENLPVKILLLNNQHLGMVVQLEDRFYKSNRAHTYLGDPSSESEIFPNMLKFADACGIPAARVTKKEELRAAIQRMLDTPGPYLLDVIVPHQEHVLPMIPSNGSFKDVITEGDGRTRY
modifications: ALS1 variant P178L W555L
In the case of B3, in the data set on G. max ALS1 protein [1], the Michaelis-Menten constant (Km) was 36 mM and the kcat turned out to be 0.35 s⁻¹. The “Substrate specificity ratio (Rf)” value with G. max ALS1 protein [2] came to 2.7.

B4: GM-ALS_P178L: Glycine Max ALS1 variant with a P→L mutation at position 178 (protein)
chain: MAATASRTTRFSSSSSHPTFPKRITRSTLPLSHQTLTKPNHALKIKCSISKPPTAAPFTKEAPTTEPFVSRFASGEPRKGADILVEALERQGVTTVFAYPGGASMEIHQALTRSAAIRNVLPRHEQGGVFAAEGYARSSGLPGVCIATSGPGATNLVSGLADALMDSVPVVAITGQVLRRMIGTDAFQETPIVEVSRSITKHNYLILDVDDIPRVVAEAFFVATSGRPGPVLIDIPKDVQQQLAVPNWDEPVNLPGYLARLPRPPAEAQLEHIVRLIMEAQKPVLYVGGGSLNSSAELRRFVELTGIPVASTLMGLGTFPIGDEYSLQMLGMHGTVYANYAVDNSDLLLAFGVRFDDRVTGKLEAFASRAKIVHIDIDSAEIGKNKQAHVSVCADLKLALKGINMILEEKGVEGKFDLGGWREEINVQKHKFPLGYKTFQDAISPQHAIEVLDELTNGDAIVSTGVGQHQMWAAQFYKYKRPRQWLTSGGLGAMGFGLPAAIGAAVANPGAVVVDIDGDGSFIMNVQELATIRVENLPVKILLLNNQHLGMVVQWEDRFYKSNRAHTYLGDPSSESEIFPNMLKFADACGIPAARVTKKEELRAAIQRMLDTPGPYLLDVIVPHQEHVLPMIPSNGSFKDVITEGDGRTRY
modifications: ALS1 variant P178L
B4: in the data set with G. max ALS1 protein [1], the Michaelis constant (Km) worked out at 14.8 mM and the catalytic constant (kcat) came out at 4.18 s⁻¹. The “Substrate specificity ratio (Rf)” value in the data set with G. max ALS1 protein [2] amounted to 119.0.

B5: GM-ALS_P178A_F559D: Glycine Max ALS1 with P→A at position 178 and F→D at position 559 (protein)
chain: MAATASRTTRFSSSSSHPTFPKRITRSTLPLSHQTLTKPNHALKIKCSISKPPTAAPFTKEAPTTEPFVSRFASGEPRKGADILVEALERQGVTTVFAYPGGASMEIHQALTRSAAIRNVLPRHEQGGVFAAEGYARSSGLPGVCIATSGPGATNLVSGLADALMDSVPVVAITGQVARRMIGTDAFQETPIVEVSRSITKHNYLILDVDDIPRVVAEAFFVATSGRPGPVLIDIPKDVQQQLAVPNWDEPVNLPGYLARLPRPPAEAQLEHIVRLIMEAQKPVLYVGGGSLNSSAELRRFVELTGIPVASTLMGLGTFPIGDEYSLQMLGMHGTVYANYAVDNSDLLLAFGVRFDDRVTGKLEAFASRAKIVHIDIDSAEIGKNKQAHVSVCADLKLALKGINMILEEKGVEGKFDLGGWREEINVQKHKFPLGYKTFQDAISPQHAIEVLDELTNGDAIVSTGVGQHQMWAAQFYKYKRPRQWLTSGGLGAMGFGLPAAIGAAVANPGAVVVDIDGDGSFIMNVQELATIRVENLPVKILLLNNQHLGMVVQWEDRDYKSNRAHTYLGDPSSESEIFPNMLKFADACGIPAARVTKKEELRAAIQRMLDTPGPYLLDVIVPHQEHVLPMIPSNGSFKDVITEGDGRTRY
modifications: ALS1 variant P178A F559D
Regarding B5, in the data set with G. max ALS1 protein [1], the Michaelis-Menten constant (Km) is 40 mM and the kcat came to 0.6 s⁻¹. Further, the “Substrate specificity ratio (Rf)” value in the data set on G. max ALS1 protein [2] amounted to 100.0.
